From PMC11574045, “A cofactor-induced repressive type of transcription factor condensation can be induced by synthetic peptides to suppress tumorigenesis” (The EMBO Journal, 2024)

System: HEK293FT cells transfected with TF library
Assay: Screening of TF condensates based on fluorescent puncta
Format: cell-based
Details: Figure 1B numerical data; TF library screen, one value per transcriptional factor
In short: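 Puncta scoring used automated confocal imaging of fifty random fields per well, after anti-Flag or anti-GAL4 immunofluorescence (Alexa 488) in PFA-fixed cells. HEK293FT cells carried TF library plasmids delivered with PEI (1.6 μg/ml DNA). At 60 h they were switched for 12 h to glucose-containing or glucose-free medium.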

B1: TSG101 (protein, UniProt Q99816 2-390, looked up)
Tumor susceptibility gene 101 …: AVSESQLKKMVSKYKYRDLTVRETVNVITLYKDLKPVLDSYVFNDGSSRELMNLTGTIPVPYRGNTYNIPICLWLLDTYPYNPPICFVKPTSSMTIKTGKHVDANGKIYLPYLHEWKHPQSDLLGLIQVMIVVFGDEPPVFSRPISASYPPYQATGPPNTSYMPGMPGGISPYPSGYPPNPSGYPGCPYPPGGPYPATTSSQYPSQPPVTTVGPSRDGTISEDTIRASLISAVSDKLRWRMKEEMDRAQAELNALKRTEEDLKKGHQKLEEMVTRLDQEVAEVDKNIELLKKKDEELSSALEKMENQSENNDIDEVIIPTAPLYKQILNLYAEENAIEDTIFYLGEALRRGVIDLDVFLKHVRLLSRKQFQLRALMQKARKTAGLSDLY
Z score of condensed fraction: 0.9844

B2: TSHZ1 (protein, UniProt Q6ZSZ6 1-1077, looked up)
Teashirt homolog 1: MPRRKQQAPRRSAAYVPEEELKAAEIDEEHVEDDGLSLDIQESEYMCNEETEIKEAQSYQNSPVSSATNQDAGYGSPFSESSDQLAHFKGSSSREEKEDPQCPDSVSYPQDSLAQIKAVYANLFSESCWSSLALDLKKSGSTTSTNDASQKESSAPTPTPPTCPVSTTGPTTSTPSTSCSSSTSHSSTTSTSSSSGYDWHQAALAKTLQQTSSYGLLPEPSLFSTVQLYRQNNKLYGSVFTGASKFRCKDCSAAYDTLVELTVHMNETGHYRDDNRDKDSEKTKRWSKPRKRSLMEMEGKEDAQKVLKCMYCGHSFESLQDLSVHMIKTKHYQKVPLKEPVPAITKLVPSTKKRALQDLAPPCSPEPAGMAAEVALSESAKDQKAANPYVTPNNRYGYQNGASYTWQFEARKAQILKCMECGSSHDTLQQLTAHMMVTGHFLKVTTSASKKGKQLVLDPVVEEKIQSIPLPPTTHTRLPASSIKKQPDSPAGSTTSEEKKEPEKEKPPVAGDAEKIKEESEDSLEKFEPSTLYPYLREEDLDDSPKGGLDILKSLENTVSTAISKAQNGAPSWGGYPSIHAAYQLPGTVKPLPAAVQSVQVQPSYAGGVKSLSSAEHNALLHSPGSLTPPPHKSNVSAMEELVEKVTGKVNIKKEERPPEKEKSSLAKAASPIAKENKDFPKTEEVSGKPQKKGPEAETGKAKKEGPLDVHTPNGTEPLKAKVTNGCNNLGIIMDHSPEPSFINPLSALQSIMNTHLGKVSKPVSPSLDPLAMLYKISNSMLDKPVYPATPVKQADAIDRYYYENSDQPIDLTKSKNKPLVSSVADSVASPLRESALMDISDMVKNLTGRLTPKSSTPSTVSEKSDADGSSFEEALDELSPVHKRKGRQSNWNPQHLLILQAQFASSLRETTEGKYIMSDLGPQERVHISKFTGLSMTTISHWLANVKYQLRRTGGTKFLKNLDTGHPVFFCNDCASQFRTASTYISHLETHLGFSLKDLSKLPLNQIQEQQNVSKVLTNKTLGPLGATEEDLGSTFQCKLCNRTFASKHAVKLHLSKTHGKSPEDHLIYVTELEKQ
Z score of condensed fraction: -1.076

B3: TSC22D2 (protein, UniProt O75157 1-780, looked up)
TSC22 domain family protein 2: MSKMPAKKKSCFQITSVTTAQVATSITEDTESLDDPDESRTEDVSSEIFDVSRATDYGPEEVCERSSSEETLNNVGDAETPGTVSPNLLLDGQLAAAAAAPANGGGVVSARSVSGALASTLAAAATSAPAPGAPGGPQLAGSSAGPVTAAPSQPPTTCSSRFRVIKLDHGSGEPYRRGRWTCMEYYERDSDSSVLTRSGDCIRHSSTFDQTAERDSGLGATGGSVVVVVASMQGAHGPESGTDSSLTAVSQLPPSEKMSQPTPAQPQSFSVGQPQPPPPPVGGAVAQSSAPLPPFPGAATGPQPMMAAAQPSQPQGAGPGGQTLPPTNVTLAQPAMSLPPQPGPAVGAPAAQQPQQFAYPQPQIPPGHLLPVQPSGQSEYLQQHVAGLQPPSPAQPSSTGAAASPATAATLPVGTGQNASSVGAQLMGASSQPSEAMAPRTGPAQGGQVAPCQPTGVPPATVGGVVQPCLGPAGAGQPQSVPPPQMGGSGPLSAVPGGPHAVVPGVPNVPAAVPAPSVPSVSTTSVTMPNVPAPLAQSQQLSSHTPVSRSSSIIQHVGLPLAPGTHSAPTSLPQSDLSQFQTQTQPLVGQVDDTRRKSEPLPQPPLSLIAENKPVVKPPVADSLANPLQLTPMNSLATSVFSIAIPVDGDEDRNPSTAFYQAFHLNTLKESKSLWDSASGGGVVAIDNKIEQAMDLVKSHLMYAVREEVEVLKEQIKELVERNSLLERENALLKSLSSNDQLSQLPTQQANPGSTSQQQAVIAQPPQPTQPPQQPNVSSA
Z score of condensed fraction: -1.109

B4: TRIP4 (protein, UniProt Q15650 2-581, looked up)
Activating signal …: AVAGAVSGEPLVHWCTQQLRKTFGLDVSEEIIQYVLSIESAEEIREYVTDLLQGNEGKKGQFIEELITKWQKNDQELISDPLQQCFKKDEILDGQKSGDHLKRGRKKGRNRQEVPAFTEPDTTAEVKTPFDLAKAQENSNSVKKKTKFVNLYTREGQDRLAVLLPGRHPCDCLGQKHKLINNCLICGRIVCEQEGSGPCLFCGTLVCTHEEQDILQRDSNKSQKLLKKLMSGVENSGKVDISTKDLLPHQELRIKSGLEKAIKHKDKLLEFDRTSIRRTQVIDDESDYFASDSNQWLSKLERETLQKREEELRELRHASRLSKKVTIDFAGRKILEEENSLAEYHSRLDETIQAIANGTLNQPLTKLDRSSEEPLGVLVNPNMYQSPPQWVDHTGAASQKKAFRSSGFGLEFNSFQHQLRIQDQEFQEGFDGGWCLSVHQPWASLLVRGIKRVEGRSWYTPHRGRLWIAATAKKPSPQEVSELQATYRLLRGKDVEFPNDYPSGCLLGCVDLIDCLSQKQFKEQFPDISQESDSPFVFICKNPQEMVVKFPIKGNPKIWKLDSKIHQGAKKGLMKQNKAV
Z score of condensed fraction: 0.1966

B5: TRP63 (protein, UniProt Q9H3D4 1-680, looked up)
Tumor protein 63: MNFETSRCATLQYCPDPYIQRFVETPAHFSWKESYYRSTMSQSTQTNEFLSPEVFQHIWDFLEQPICSVQPIDLNFVDEPSEDGATNKIEISMDCIRMQDSDLSDPMWPQYTNLGLLNSMDQQIQNGSSSTSPYNTDHAQNSVTAPSPYAQPSSTFDALSPSPAIPSNTDYPGPHSFDVSFQQSSTAKSATWTYSTELKKLYCQIAKTCPIQIKVMTPPPQGAVIRAMPVYKKAEHVTEVVKRCPNHELSREFNEGQIAPPSHLIRVEGNSHAQYVEDPITGRQSVLVPYEPPQVGTEFTTVLYNFMCNSSCVGGMNRRPILIIVTLETRDGQVLGRRCFEARICACPGRDRKADEDSIRKQQVSDSTKNGDGTKRPFRQNTHGIQMTSIKKRRSPDDELLYLPVRGRETYEMLLKIKESLELMQYLPQHTIETYRQQQQQQHQHLLQKQTSIQSPSSYGNSSPPLNKMNSMNKLPSVSQLINPQQRNALTPTTIPDGMGANIPMMGTHMPMAGDMNGLSPTQALPPPLSMPSTSHCTPPPPYPTDCSIVSFLARLGCSSCLDYFTTQGLTTIYQIEHYSMDDLASLKIPEQFRHAIWKGILDHRQLHEFSSPSHLLRTPSSASTVSVGSSETRGERVIDAVRFTLRQTISFPPRDEWNDFNFDMDARRNKQQRIKEEGE
Z score of condensed fraction: -0.7687

B6: TRPS1 (protein, UniProt Q9UHF7 1-1281, looked up)
Zinc finger transcription …: MVRKKNPPLRNVASEGEGQILEPIGTESKVSGKNKEFSADQMSENTDQSDAAELNHKEEHSLHVQDPSSSSKKDLKSAVLSEKAGFNYESPSKGGNFPSFPHDEVTDRNMLAFSSPAAGGVCEPLKSPQRAEADDPQDMACTPSGDSLETKEDQKMSPKATEETGQAQSGQANCQGLSPVSVASKNPQVPSDGGVRLNKSKTDLLVNDNPDPAPLSPELQDFKCNICGYGYYGNDPTDLIKHFRKYHLGLHNRTRQDAELDSKILALHNMVQFSHSKDFQKVNRSVFSGVLQDINSSRPVLLNGTYDVQVTSGGTFIGIGRKTPDCQGNTKYFRCKFCNFTYMGNSSTELEQHFLQTHPNKIKASLPSSEVAKPSEKNSNKSIPALQSSDSGDLGKWQDKITVKAGDDTPVGYSVPIKPLDSSRQNGTEATSYYWCKFCSFSCESSSSLKLLEHYGKQHGAVQSGGLNPELNDKLSRGSVINQNDLAKSSEGETMTKTDKSSSGAKKKDFSSKGAEDNMVTSYNCQFCDFRYSKSHGPDVIVVGPLLRHYQQLHNIHKCTIKHCPFCPRGLCSPEKHLGEITYPFACRKSNCSHCALLLLHLSPGAAGSSRVKHQCHQCSFTTPDVDVLLFHYESVHESQASDVKQEANHLQGSDGQQSVKESKEHSCTKCDFITQVEEEISRHYRRAHSCYKCRQCSFTAADTQSLLEHFNTVHCQEQDITTANGEEDGHAISTIKEEPKIDFRVYNLLTPDSKMGEPVSESVVKREKLEEKDGLKEKVWTESSSDDLRNVTWRGADILRGSPSYTQASLGLLTPVSGTQEQTKTLRDSPNVEAAHLARPIYGLAVETKGFLQGAPAGGEKSGALPQQYPASGENKSKDESQSLLRRRRGSGVFCANCLTTKTSLWRKNANGGYVCNACGLYQKLHSTPRPLNIIKQNNGEQIIRRRTRKRLNPEALQAEQLNKQQRGSNEEQVNGSPLERRSEDHLTESHQREIPLPSLSKYEAQGSLTKSHSAQQPVLVSQTLDIHKRMQPLHIQIKSPQESTGDPGNSSSVSEGKGSSERGSPIEKYMRPAKHPNYSPPGSPIEKYQYPLFGLPFVHNDFQSEADWLRFWSKYKLSVPGNPHYLSHVPGLPNPCQNYVPYPTFNLPPHFSAVGSDNDIPLDLAIKHSRPGPTANGASKEKTKAPPNVKNEGPLNVVKTEKVDRSTQDELSTKCVHCGIVFLDEVMYALHMSCHGDSGPFQCSICQHLCTDKYDFTTHIQRGLHRNNAQVEKNGKPKE
Z score of condensed fraction: -0.2124

B7: TSHZ2 (protein, UniProt Q9NRE2 1-1034, looked up)
Teashirt homolog 2: MPRRKQQAPKRAAGYAQEEQLKEEEEIKEEEEEEDSGSVAQLQGGNDTGTDEELETGPEQKGCFSYQNSPGSHLSNQDAENESLLSDASDQVSDIKSVCGRDASDKKAHTHVRLPNEAHNCMDKMTAVYANILSDSYWSGLGLGFKLSNSERRNCDTRNGSNKSDFDWHQDALSKSLQQNLPSRSVSKPSLFSSVQLYRQSSKMCGTVFTGASRFRCRQCSAAYDTLVELTVHMNETGHYQDDNRKKDKLRPTSYSKPRKRAFQDMDKEDAQKVLKCMFCGDSFDSLQDLSVHMIKTKHYQKVPLKEPVPTISSKMVTPAKKRVFDVNRPCSPDSTTGSFADSFSSQKNANLQLSSNNRYGYQNGASYTWQFEACKSQILKCMECGSSHDTLQQLTTHMMVTGHFLKVTSSASKKGKQLVLDPLAVEKMQSLSEAPNSDSLAPKPSSNSASDCTASTTELKKESKKERPEETSKDEKVVKSEDYEDPLQKPLDPTIKYQYLREEDLEDGSKGGGDILKSLENTVTTAINKAQNGAPSWSAYPSIHAAYQLSEGTKPPLPMGSQVLQIRPNLTNKLRPIAPKWKVMPLVSMPTHLAPYTQVKKESEDKDEAVKECGKESPHEEASSFSHSEGDSFRKSETPPEAKKTELGPLKEEEKLMKEGSEKEKPQPLEPTSALSNGCALANHAPALPCINPLSALQSVLNNHLGKATEPLRSPSCSSPSSSTISMFHKSNLNVMDKPVLSPASTRSASVSRRYLFENSDQPIDLTKSKSKKAESSQAQSCMSPPQKHALSDIADMVKVLPKATTPKPASSSRVPPMKLEMDVRRFEDVSSEVSTLHKRKGRQSNWNPQHLLILQAQFASSLFQTSEGKYLLSDLGPQERMQISKFTGLSMTTISHWLANVKYQLRKTGGTKFLKNMDKGHPIFYCSDCASQFRTPSTYISHLESHLGFQMKDMTRLSVDQQSKVEQEISRVSSAQRSPETIAAEEDTDSKFKCKLCCRTFVSKHAVKLHLSKTHSKSPEHHSQFVTDVDEE
Z score of condensed fraction: -1.212
